Data taken from article PMC6992733, “Analysis of the polycystin complex (PCC) in human urinary exosome–like vesicles (ELVs)” (Scientific Reports, 2020).
Values joined by “and” are separate entries in the source; they are usually repeats but may differ in a detail not shown here. Equal entries are not always repeated.

What was measured:
[1] = target: the molecule itself; assay: native gel or EMSA; purified urinary ELVs with 0.2-0.8% SDS, non reducing, incubated on ice 20 min without heating; native gel; western blot
[2] = target: the molecule itself; assay: SDS-PAGE and western blot; human RCTE cells, PC2 bands on SDS-PAGE western blot read as monomer, dimer and tetramer (Supplemental Fig. 2)

Row | Protein | stoichiometry N [1] | stoichiometry N [2]
1 | polycystin-2 (PC2) of urinary ELVs (natural protein, human (endogenous in urinary ELVs), UniProt Q13563 1-968, looked up, mature post-Golgi N-linked glycosylation (PNGase F sensitive, Endo H resistant), polycystin-2, human, product of PKD2, printed length 968 aa; about 10-13% is cleaved in the C-terminal tail N-terminal to the coiled-coil domain (833..872 aa); also called ELV PC2; source: endogenous, human urinary exosome-like vesicles (ELVs), detergent-solubilised) MVNSSRVQPQQPGDAKRPPAPRAPDPGRLMAGCAAVGASLAAPGGLCEQRGLEIEMQRIRQAAARDPPAGAAASPSPPLSSCSRQAWSRDNPGFEAEEEEEEVEGEEGGMVVEMDVEWRPGSRRSAASSAVSSVGARSRGLGGYHGAGHPSGRRRRREDQGPPCPSPVGGGDPLHRHLPLEGQPPRVAWAERLVRGLRGLWGTRLMEESSTNREKYLKSVLRELVTYLLFLIVLCILTYGMMSSNVYYYTRMMSQLFLDTPVSKTEKTNFKTLSSMEDFWKFTEGSLLDGLYWKMQPSNQTEADNRSFIFYENLLLGVPRIRQLRVRNGSCSIPQDLRDEIKECYDVYSVSSEDRAPFGPRNGTAWIYTSEKDLNGSSHWGIIATYSGAGYYLDLSRTREETAAQVASLKKNVWLDRGTRATFIDFSVYNANINLFCVVRLLVEFPATGGVIPSWQFQPLKLIRYVTTFDFFLAACEIIFCFFIFYYVVEEILEIRIHKLHYFRSFWNCLDVVIVVLSVVAIGINIYRTSNVEVLLQFLEDQNTFPNFEHLAYWQIQFNNIAAVTVFFVWIKLFKFINFNRTMSQLSTTMSRCAKDLFGFAIMFFIIFLAYAQLAYLVFGTQVDDFSTFQECIFTQFRIILGDINFAEIEEANRVLGPIYFTTFVFFMFFILLNMFLAIINDTYSEVKSDLAQQKAEMELSDLIRKGYHKALVKLKLKKNTVDDISESLRQGGGKLNFDELRQDLKGKGHTDAEIEAIFTKYDQDGDQELTEHEHQQMRDDLEKEREDLDLDHSSLPRPMSSRSFPRSLDDSEEDDDEDSGHSSRRRGSISSGVSYEEFQVLVRRVDRMEHSIGSIVSKIDAVIVKLEIMERAKLKRREVLGRLLDGVAEDERLGRDSEIHREQMERLVREELERWESDDAASQISHGLGTPVGLNGQPRPRSSRPSSSQSTEGMEGAGGNGSSNVHV | 2 | –
2 | polycystin-2 (PC2) of human renal cortical tubular epithelial (RCTE) cells (natural protein, human (endogenous in RCTE cells), UniProt Q13563 1-968, looked up, polycystin-2, human, product of PKD2, printed length 968 aa; also called PC2 from cells; source: endogenous, human RCTE cells) MVNSSRVQPQQPGDAKRPPAPRAPDPGRLMAGCAAVGASLAAPGGLCEQRGLEIEMQRIRQAAARDPPAGAAASPSPPLSSCSRQAWSRDNPGFEAEEEEEEVEGEEGGMVVEMDVEWRPGSRRSAASSAVSSVGARSRGLGGYHGAGHPSGRRRRREDQGPPCPSPVGGGDPLHRHLPLEGQPPRVAWAERLVRGLRGLWGTRLMEESSTNREKYLKSVLRELVTYLLFLIVLCILTYGMMSSNVYYYTRMMSQLFLDTPVSKTEKTNFKTLSSMEDFWKFTEGSLLDGLYWKMQPSNQTEADNRSFIFYENLLLGVPRIRQLRVRNGSCSIPQDLRDEIKECYDVYSVSSEDRAPFGPRNGTAWIYTSEKDLNGSSHWGIIATYSGAGYYLDLSRTREETAAQVASLKKNVWLDRGTRATFIDFSVYNANINLFCVVRLLVEFPATGGVIPSWQFQPLKLIRYVTTFDFFLAACEIIFCFFIFYYVVEEILEIRIHKLHYFRSFWNCLDVVIVVLSVVAIGINIYRTSNVEVLLQFLEDQNTFPNFEHLAYWQIQFNNIAAVTVFFVWIKLFKFINFNRTMSQLSTTMSRCAKDLFGFAIMFFIIFLAYAQLAYLVFGTQVDDFSTFQECIFTQFRIILGDINFAEIEEANRVLGPIYFTTFVFFMFFILLNMFLAIINDTYSEVKSDLAQQKAEMELSDLIRKGYHKALVKLKLKKNTVDDISESLRQGGGKLNFDELRQDLKGKGHTDAEIEAIFTKYDQDGDQELTEHEHQQMRDDLEKEREDLDLDHSSLPRPMSSRSFPRSLDDSEEDDDEDSGHSSRRRGSISSGVSYEEFQVLVRRVDRMEHSIGSIVSKIDAVIVKLEIMERAKLKRREVLGRLLDGVAEDERLGRDSEIHREQMERLVREELERWESDDAASQISHGLGTPVGLNGQPRPRSSRPSSSQSTEGMEGAGGNGSSNVHV | – | 2 and 4
